Series [1] has as its target HIF1a bHLH-PASA-PASB;ARNT bHLH-PASA-PASB (;) (UniProt Q16665+P27540). Nature of the series: EMSA. The following applies: EMSA: 10 nM probe, 20 mM Tris pH 8.0, 250 mM NaCl, 16 ug/ml salmon sperm ssDNA, 30 ug/ml BSA, 1.25 mM MgCl2, 6% glycerol, 10 mM DTT, room temperature 30 min ….
Series [2] addresses HIF2a bHLH-PASA-PASB;ARNT bHLH-PASA-PASB (;) (UniProt Q99814+P27540). Kind of series: EMSA. The following applies: EMSA: 10 nM probe, 20 mM Tris pH 8.0, 250 mM NaCl, 16 ug/ml salmon sperm ssDNA, 30 ug/ml BSA, 1.25 mM MgCl2, 6% glycerol, 10 mM DTT, room temperature 30 min ….

The values below come from paper PMC12774657.

In series [1], TACGTG-containing EMSA probe had a binding signal (fold affinity vs HIF2a/ARNT) of 2. The binding signal (reference (HIF1a/ARNT ~2 fold higher)) in series [2] worked out at 1.
